# The supplement of paper PMC9112550, “Optimization of the antimicrobial peptide Bac7 by deep mutational scanning” (BMC Biology, 2022)
# System: Escherichia coli TOP10
# Assay: shrunken log2 fold change of peptide-encoding DNA abundance (4.5 h post-induction vs induction); higher = less antimicrobial activity (less host growth inhibition)
# Conditions: time post-induction: 4.5 h; library: site-saturation at positions 5, 18, 19, 20
# 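Note: peptides expressed intracellularly from a pBAD plasmid library in pooled LB shake-flask culture, induced with 0.3% L-arabinose, DNA abundance read by NGS, three biological replicates, DESeq2 with apeglm shrinkage.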
row,Sequence,shrunken log2 fold change
1,RRIRVRPPRLPRPRPRPEANPRP,-0.141
2,RRIRGRPPRLPRPRPRPRVFPRP,1.02
3,RRIRRRPPRLPRPRPRPAMQPRP,0.423
4,RRIRGRPPRLPRPRPRPTFQPRP,0.59
5,RRIRKRPPRLPRPRPRPTKPPRP,0.221
6,RRIRWRPPRLPRPRPRPRHEPRP,-0.0681
7,RRIRERPPRLPRPRPRPNEPPRP,-0.129
8,RRIRSRPPRLPRPRPRPWLDPRP,-0.0811
9,RRIRMRPPRLPRPRPRPTEIPRP,-0.0223
10,RRIRDRPPRLPRPRPRPAFLPRP,0.000425
11,RRIRKRPPRLPRPRPRPQMNPRP,0.104
12,RRIRLRPPRLPRPRPRPRDIPRP,-0.54
13,RRIRWRPPRLPRPRPRPFQYPRP,-0.199
14,RRIRGRPPRLPRPRPRPFTLPRP,-0.109
15,RRIRCRPPRLPRPRPRPGWDPRP,0.257
16,RRIRKRPPRLPRPRPRPCLNPRP,0.00932
17,RRIRPRPPRLPRPRPRPKYMPRP,1.72
18,RRIRCRPPRLPRPRPRPLCNPRP,-0.244
19,RRIRYRPPRLPRPRPRPLYHPRP,-1.11
20,RRIRYRPPRLPRPRPRPHHAPRP,-0.00186
21,RRIRRRPPRLPRPRPRPFMIPRP,-0.394
22,RRIRSRPPRLPRPRPRPHCCPRP,0.022
23,RRIRVRPPRLPRPRPRPGGKPRP,0.171
24,RRIRVRPPRLPRPRPRPTICPRP,-0.604
25,RRIRMRPPRLPRPRPRPFCIPRP,-0.288

row,Sequence,shrunken log2 fold change
1,RRIRSRPPRLPRPRPRPFGDPRP,-0.0872
2,RRIRPRPPRLPRPRPRPTIMPRP,-0.335
3,RRIRGRPPRLPRPRPRPKPFPRP,0.601
4,RRIRARPPRLPRPRPRPQFKPRP,-0.0331
5,RRIRGRPPRLPRPRPRPTDGPRP,0.361
6,RRIRFRPPRLPRPRPRPARTPRP,0.332
7,RRIRQRPPRLPRPRPRPKQYPRP,-0.359
8,RRIRDRPPRLPRPRPRPKKCPRP,0.0235
9,RRIRCRPPRLPRPRPRPTTRPRP,0.176
10,RRIRFRPPRLPRPRPRPMGVPRP,-0.457
11,RRIRRRPPRLPRPRPRPGGHPRP,0.499
12,RRIRRRPPRLPRPRPRPEEPPRP,0.24
13,RRIRDRPPRLPRPRPRPIQFPRP,-0.177
14,RRIRHRPPRLPRPRPRPAMYPRP,-0.0134
15,RRIRLRPPRLPRPRPRPMSFPRP,-0.284
16,RRIRPRPPRLPRPRPRPGARPRP,1.19
17,RRIRKRPPRLPRPRPRPDGNPRP,0.00833
18,RRIRARPPRLPRPRPRPAIRPRP,0.422
19,RRIRARPPRLPRPRPRPSHWPRP,-0.175
20,RRIRTRPPRLPRPRPRPLKFPRP,-0.27
21,RRIRWRPPRLPRPRPRPLANPRP,0.552
22,RRIRMRPPRLPRPRPRPMPRPRP,0.561
23,RRIRTRPPRLPRPRPRPTDEPRP,0.491
24,RRIRLRPPRLPRPRPRPRSQPRP,0.19
25,RRIRQRPPRLPRPRPRPLPHPRP,0.137

row,Sequence,shrunken log2 fold change
1,RRIRTRPPRLPRPRPRPKLKPRP,-0.0522
2,RRIRFRPPRLPRPRPRPRCCPRP,0.164
3,RRIRRRPPRLPRPRPRPWKVPRP,0.00548
4,RRIRHRPPRLPRPRPRPTSEPRP,0.0261
5,RRIRDRPPRLPRPRPRPSPVPRP,0.0438
6,RRIRFRPPRLPRPRPRPDKWPRP,0.0538
7,RRIRLRPPRLPRPRPRPTTLPRP,0.0342
8,RRIRMRPPRLPRPRPRPQPLPRP,0.224
9,RRIRDRPPRLPRPRPRPHTTPRP,-0.117
10,RRIRKRPPRLPRPRPRPTKYPRP,-0.106
11,RRIRTRPPRLPRPRPRPWCNPRP,-0.0437
12,RRIRSRPPRLPRPRPRPLAYPRP,0.0208
13,RRIRRRPPRLPRPRPRPTPWPRP,0.841
14,RRIRWRPPRLPRPRPRPNPVPRP,-0.266
15,RRIRKRPPRLPRPRPRPNKNPRP,0.125
16,RRIRNRPPRLPRPRPRPKALPRP,0.0983
17,RRIRPRPPRLPRPRPRPTGLPRP,0.156
18,RRIRQRPPRLPRPRPRPHCHPRP,-0.164
19,RRIRCRPPRLPRPRPRPDQGPRP,-0.143
20,RRIRTRPPRLPRPRPRPVPYPRP,-0.0764
21,RRIRCRPPRLPRPRPRPPFPPRP,0.302
22,RRIRGRPPRLPRPRPRPLTHPRP,0.168
23,RRIRHRPPRLPRPRPRPVPKPRP,0.0819
24,RRIRFRPPRLPRPRPRPDFHPRP,-0.287
25,RRIRLRPPRLPRPRPRPHTSPRP,-0.112
